Results reported in PMC9248843, “Structural and biophysical studies of new L-asparaginase variants: lessons from random mutagenesis of the prototypic Escherichia coli Ntn-amidohydrolase” (Acta Crystallographica. Section D, Structural Biology, 2022).

Biological target: the molecule itself
Experiment: SEC; SEC profiles of Supplementary Fig. S4; before biophysical measurements proteins were run on Superdex 75 10/300 GL in 20 mM phosphate buffer pH 7.5

B1: EcAIII variant RDM1-64, unprocessed immature precursor (enzyme, Escherichia coli, UniProt P37595 1-321, looked up)
chain: MGKAVIAIHGGAGAISRAQMSLQQELRYIEALSAIVETGQKMLEAGESALDVVTEAVRLLEECPLFNAGIGAVFTRDETHELDACVMDGNTLKAGAVAGVSHLRNPVLAARLVMEQSPHVMMIGEGAENFAFARGMERVSPEIFSTSLRYEQLLAARKEGATVLDHSGAPLDEKQKMGTVGAVALDLDGNLAAATSTGGMTNKLPIVVGIGPLVGAGCYANNASVAVSCTGTGEVFIRALAAYDIAALMDYGGLSLAEACERVVMEKLPALGGSGGLIAIDHEGNVALPFNTEGMYRAWGYAGDTPTTGIYREKGDTVATQ
notes: EcAIII of Escherichia coli, uncleaved immature precursor (α and β on one chain, linker intact), with the substitutions of RDM1-64; No ability to process into α/β subunits; EcAIII gene in pET-11d; source: E. coli BL21 Gold, purified (DEAE-Sepharose, SEC)
B1: binds.
